Laboratory results published in publication PMC11508087 (PLOS Pathogens, 2024).

B1: pOA-4 (antibody, V domains shown)
VH: EEKLVESGGGLVRPGGSLRLSCVGSGFPWNTYSVRWVRQAPMKGLEFVAYIFKNDNDRDYASSVKGRFTISRDNSQNTAYLQMNNLRTEDTAHYYCLLANKYWGPGVEVVVSS
VL: AVVLTQTPVSLTVSVGEPASISCSSSQSLVEDDGSSVLNWYLQKPGQSPQRLIYSAVGRDTGVPDRFSGSGSGTEFTLKISRVEAEDAGVYYCQQSRFSTSFGAGSKLELK
B2: pOA-5 (antibody, V domains shown)
VH: EEKLVESGGGLVQPGGSLRLSCVGSGFIFSSGEITWVRQAPGKGLEWLAYTTIRGTSKYYADSVGGRFTISRDDSQNTATLQMNSLRIEDTARYYCARGKEDAVQGYYGKALDLWGPGIGVVVSS
VL: SSQLTQPPGVSVSLGGTATITCQGGSFGRYYSHWYKQRPGQAPILVIYDDAKRPAGIPDRFSGSTSGNSVTLTITGAQAEDEADYYCQSVDRSGNAKFGGGTHLTVL
B3: pOA-14 (antibody, V domains shown)
VH: EERLVESGGGLVQPGGSLKLSCVASGFDFQKYMINWVRQAPGKGLEWLALIWNDGKQRYYVESAHMRFTISRNNSQNTAYLEMNRLRVEETARYYCARGWGVEKMDLWGPGVEVAVSS
VL: QTVIQEPAMTVSLGGTVTLTCGFSSGSVTGTKYPNWYQQTPGQRPRLLIYSTKIRPTGVPSRFSGAISGNKATLTIMGAGAEDEADYYCSLNQNYKIIFGAGTHLIVL
B4: pOA-18 (antibody, V domains shown)
V domain 1: EEKLVESGGGLVQPGGSLRLSCVGSGFTFTNYEIVWVRQAPGRGPEWISYISNGGARKAYATSVRGRFSISRDNSRNTVDLQLNNLKIEDTGRYYCVGGGHCLGDNCYSLSLWGPGVELVVSS
V domain 2: QTVIQEPAMSVSPGGTVTLTCAFYSGSVTSENYPSWFQQTSGQPPREVIYMTDNRPTGVPDRFSGSISGNKATLTITGAQAEDEADYFCMLYKGTTNVPFGGGTHLTVL
B5: pOA-12 (antibody, V domains shown)
VH: EEKLVESGGGLVQPGGSLTLSCVGSGFYFSNYEIVWVRQVRGGGLEWISYVSNGGARTSYALSVKGRFTIFRDNSRNTVDLHLNNLRIEDTARYYCVGGGQCLGDNCYSMALWGPGVEVFVSS
VL: QTVIQEPAMSVSLGGTVTLTCAFTSGSVTKTNYPSWFQQTPGQPPRQLIYHTDNQATGVPSRFSGAISGNKATFTITGAQAEDEADYFCCLYRGTTNVPFGGGTRLTVL
B6: pOA-15 (antibody, V domains shown)
VH: EEKLVESGGGLVQPGGSLRLSCVGSGFDLSDYGFSWVRQAPGKGLETMAFIDSRTSSFTTYTVIGVKGRFTIDNDNALQLNSLTSEDTARYFCARGRGSNGPKGLIGAYGMDLWGPGVEVVVSS
VL: QIVIQEPAMSVSLGGTVTLTCAYRSGSVTIKDGPNWYQQTPGQPPRQLIYNTNSRPTGVPSRFSGAISGNKATLTIAGAQAEDEAEYFCILYKNLEEVRFGDGTHLSVV
B7: pOA-11 (antibody, V domains shown)
VH: EEKVVESGGGLVRPGESLRLSCVAEGVEFGRRSVRWVRQRPGKGLEFVIYMFNDAQSVDIADSVKGRFTISRDNSQNTAYLQMNRLTVEDTGRYFCLTANKWFGPGVEVVVSS
VL: AIVLTQTPLSLSVTPGESVSISCKSTKSVLDTDGTIVLNWYLQRPGQAPQRVIWSTFYRETGVPDRFTGSGSDTDFTLHISRVEAEDVGVYYCQQSRESTSFGAGTKLDLK
B8: pOA-16 (antibody, V domains shown)
VH: EEKLVESGGGLVQPGGSLTLSCVGSGFDFSLYNMIWVRQAPGKGLEWLAGIWESGVQDSYPESMKGRFTISRDNSQNTAYLKIHILGMEDTARYYCASGARCGEDRCIDLWGPGVEVVVSS
VL: QTVIQEPAMKVSPGGTVTLSCAFSSGSVTTSNYPSWFQHTPGQPPRLLMYRTSYRPTGVNSRFSGAISGNKATLTITGAQTTDEADYYCALFLNTITIPFGGGTHLTVL
B9: pOA-1 (antibody, V domains shown)
VH: EENVVESGGGLVRPGGSLRLSCIFSGFTFSTYSVRWVRQAPGKGLEFLTYIFKNVGDIDTADSVKGRFTISRDNSQNTAYLQMNSLRPEDTARYFCLVANKYWGPGVEVLVSS
VL: AIVLTQSPLSLSVSPGDSASISCRSSQSLVEDDGSSVLNWYLQRPGQSPQRLIYSAVGRDAGVPDRFSGSGSGTDFTLTISGVEAEDLGVYYCQQSKVSTTFGAGSKLDLK

target: FMDV O/18074 146S antigen (Foot-and-mouth disease virus serotype …, strain); assay: not given; conditions: not given

Does B1 bind?
Result: binds

Does B2 bind?
Result: binds

Does B3 bind?
Result: binds

Does B4 bind?
Result: binds

Does B5 bind?
Result: binds

Does B6 bind?
Result: binds

Does B7 bind?
Result: binds

Does B8 bind?
Result: binds

target: T1, FMDV O/Tibet/99 146S antigen (Foot-and-mouth disease virus serotype …, strain); assay: BLI; RED96; […] (10 μg/ml) […]; 0.01 M PBS, 0.1% BSA, 0.02% Tween 20; global fit; conditions: both partners purified
T1 construct: copies: + + +

For B9, which Kd is on record?
The Kd was 40 pM.
